Among the data in patent publication US20240132589A1 are Bmax (MFI), % Blocking of B2Comp1 Binding and % Blocking of B2Comp2 Binding values, retold here.

For assay [1], the target named is Human LILRB2 on transiently transfected HEK293-6E cells (human) (UniProt Q8N423). Description: flow cytometry, transiently transfected HEK293-6E cells. In general terms: Flow cytometry measures light scatter and fluorescence of single cells or particles in a stream.
Assay [2] has as its target Human LILRB2 on stably transduced HEK293T cells (human) (UniProt Q8N423). The assay is described as follows: flow cytometry competition on HEK293T-LILRB2 cells; blocking mAb 1 µg/mL; competitor: biotinylated B2Comp1.
Assay [3] has the same target. Description: flow cytometry competition on HEK293T-LILRB2 cells; blocking mAb 1 µg/mL; competitor: biotinylated B2Comp2.
Assay [4] shares this target. Description: flow cytometry competition on HEK293T-LILRB2 cells; blocking mAb 10 µg/mL; competitor: biotinylated B2Comp1.
For assay [5] the target is unchanged. Description: flow cytometry competition on HEK293T-LILRB2 cells; blocking mAb 10 µg/mL; competitor: biotinylated B2Comp2.
Assay [6] shares this target. The assay is described as follows: flow cytometry competition on HEK293T-LILRB2 cells; blocking mAb 0.1 µg/mL; competitor: biotinylated B2Comp1.
Assay [7] shares this target. The assay is described as follows: flow cytometry competition on HEK293T-LILRB2 cells; blocking mAb 0.1 µg/mL; competitor: biotinylated B2Comp2.

Chain of Human LILRB2 on stably transduced HEK293T cells (human) (Q8N423 other isoform, or with tags, fused parts or gaps limits assumed): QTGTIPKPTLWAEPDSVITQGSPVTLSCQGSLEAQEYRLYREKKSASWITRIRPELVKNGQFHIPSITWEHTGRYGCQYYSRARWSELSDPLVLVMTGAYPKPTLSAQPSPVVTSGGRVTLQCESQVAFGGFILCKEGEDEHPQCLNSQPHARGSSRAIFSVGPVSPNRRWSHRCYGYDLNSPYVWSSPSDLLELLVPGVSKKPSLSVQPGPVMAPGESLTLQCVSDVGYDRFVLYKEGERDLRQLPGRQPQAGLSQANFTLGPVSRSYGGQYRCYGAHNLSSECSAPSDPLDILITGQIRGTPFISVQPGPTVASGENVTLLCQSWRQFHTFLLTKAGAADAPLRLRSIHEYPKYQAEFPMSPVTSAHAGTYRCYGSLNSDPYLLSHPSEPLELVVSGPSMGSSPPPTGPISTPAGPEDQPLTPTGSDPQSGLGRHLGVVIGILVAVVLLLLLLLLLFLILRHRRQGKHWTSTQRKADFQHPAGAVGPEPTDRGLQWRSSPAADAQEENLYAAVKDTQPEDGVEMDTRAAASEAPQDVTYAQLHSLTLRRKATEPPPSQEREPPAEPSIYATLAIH
Chain of Human LILRB2 on transiently transfected HEK293-6E cells (human) (Q8N423 22-597): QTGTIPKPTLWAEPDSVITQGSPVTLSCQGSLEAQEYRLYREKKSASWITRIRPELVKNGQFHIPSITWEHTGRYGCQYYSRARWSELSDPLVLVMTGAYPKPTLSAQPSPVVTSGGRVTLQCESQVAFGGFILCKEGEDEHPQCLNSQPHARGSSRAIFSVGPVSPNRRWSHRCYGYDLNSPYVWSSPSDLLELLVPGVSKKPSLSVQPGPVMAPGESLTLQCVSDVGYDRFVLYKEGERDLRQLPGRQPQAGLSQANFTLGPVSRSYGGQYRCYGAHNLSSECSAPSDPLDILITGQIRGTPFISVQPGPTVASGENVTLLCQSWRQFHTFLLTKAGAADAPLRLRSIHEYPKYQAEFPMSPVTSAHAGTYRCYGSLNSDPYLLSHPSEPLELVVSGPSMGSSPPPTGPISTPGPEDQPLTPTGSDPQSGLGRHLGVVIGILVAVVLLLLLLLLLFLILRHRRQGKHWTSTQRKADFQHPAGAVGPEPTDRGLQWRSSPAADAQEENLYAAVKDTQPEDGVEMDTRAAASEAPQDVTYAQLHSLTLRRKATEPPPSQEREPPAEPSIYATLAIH

B1: B2Comp2 (antibody, IgG4, V domains shown)
VH: QITLKESGPTLVKPTQTLTLTCTFSGFSLNTYAMGVSWIRQPPGKALEWLASIWWNGNKYNNPSLKSRLTVTKDTSKNQVVLTMTNMDPVDTATYYCAHSRIIRFTDYVMDAWGQGTLVTVSS
VL: DIQMTQSPSSLSTSVGDRVTITCRASEDIYNDLAWYQQKPGKAPKLLIYNANSLHTGVASRFSGSGSGTDFTFTISSLQPEDVATYFCQQYYDYPLTFGQGTKLEIKR
modifications: Biotin-conjugated when used as the labelled ('hot') benchmark antibody in the binning assay. The site is not stated and is not carried by the letters.
The molecule B1 showed a Bmax (MFI) in assay [1] of 9630 MFI. Besides, the % Blocking of B2Comp1 Binding turned out to be 78% in assay [2], 80% in assay [4] and 47% in assay [6]. Also, the values for the % Blocking of B2Comp2 Binding in assay [3], in assay [5] and in assay [7] were 97%, 100% and 44%, respectively.
